Target: HIV envelope protein on HIV-infected cells (HIV)
Experiment: cell-based or functional assay

Substance: anti-HIV chimeric antigen receptor comprising scFv derived from PGT128 (PGT128 CAR)
- HIV-infected cells killed at 48 hours, against CARCD19 T-cells: 56%

— US20170044240A1
